Laboratory results reported in PMC11624268, “Leishmania protein KMP-11 modulates cholesterol transport and membrane fluidity to facilitate host cell invasion” (EMBO Reports, 2024).
Numbering of substitutions follows the chain as printed. Names and notes keep the numbering of the source.

B1: purified recombinant KMP-11 (kinetoplastid membrane protein-11), wild type (natural protein)
chain: MATTYEEFSAKLDRLDQEFNRKMQEQNAKFFADKPDESTLSPEMREHYEKFERMIKEHTEKFNKKMHEHSEHFKQKFAELLEQQKAAQYPSK
notes: amino-terminal stretch (1-19) of kinetoplastid membrane protein-11 (KMP-11), Leishmania donovani (so in the source); rest of kinetoplastid membrane protein-11 (KMP-11), Leishmania donovani, after the printed stretch 1-19; Purification by the procedure of Sharma et al, 2013; also called r-KMP-11; WT KMP-11; source: pET28a, bacterial culture, purified (Ni-NTA, endotoxin removal column, gel …)
B2: Alexa488-maleimide labeled r-KMP-11 S38C (kinetoplastid membrane protein-11, single cysteine mutant) (natural protein)
chain: B1 chain with S38C
modifications: Alexa-488 maleimide on the single cysteine (S38C); labeling percentage 86%
notes: amino-terminal stretch (1-19) of kinetoplastid membrane protein-11 (KMP-11), Leishmania donovani (so in the source); rest of kinetoplastid membrane protein-11 (KMP-11), Leishmania donovani, after the printed stretch 1-19; The labeled protein was passed through Ni NTA after labeling, so the tag was probably still there; Purification by the procedure of Sharma et al, 2013; also called …

Experiments:
[1] = biological target: the molecule itself; assay: negative stain TEM; purified KMP-11 (0.1 mg/ml) in the presence of DPPC ERG (30%) SUVs; 50 mM tris pH 8.0, 150 mM NaCl; 1% uranyl acetate
[2] = biological target: B1; assay: fluorescence correlation spectroscopy (FCS); 50 nM Alexa488Maleimide labeled r-KMP-11 in the presence of unlabeled r-KMP-11 at different total concentrations; diffusion time read out; in the absence and presence of different salt concentrations (salt facilitates self-association); conditions: both partners purified
[3] = biological target: the molecule itself; assay: single molecule photobleaching step analysis (TIRF microscopy); 50 nM Alexa-488 maleimide labeled KMP-11 (S38C) on PEG cushioned supported bilayer of DPPC-ERG (30%); 30 min incubation; manual step counts from 235 spots

Binder | stoichiometry N [1] | binding result [2] | stoichiometry N [3]
B1 | 4 | – | –
B2 | – | binds | 4
